Target: T1, VEGFR2-EpoR chimeric receptor (mouse VEGFR2 extracellular domain with mouse EpoR transmembrane and … (mouse, UniProt P35918 20-762; P14753 250-507, limits assumed)
T1 construct: extracellular domain;domain: transmembrane and cytoplasmic domains; Expressed on the surface of Ba/F3 cells (line Ba/F3-NYK-EpoR); also called VEGF receptor-2; Flk-1
Test: Ba/F3 VEGFR2-EpoR bioassay (binding inferred from proliferation)
Experimental: Recombinant VEGFDΔNΔC, and material purified by M2 affinity chromatography, was assessed using the VEGFR2 bioassay. Bioassay cells (10^4), washed to remove IL-3, were incubated with aliquots of conditioned medium from VEGF-D transfected COS cells, fraction #1 from the affinity column (void volume), or fraction #3 from the affinity column (containing VEGFDΔNΔC). All samples were tested at an initial concentration of 20% (i.e., ⅕) followed by doubling dilutions. Cells were allowed to incubate for 48 hours at 37° C. in a humidified atmosphere of 10% CO_2. Cell proliferation was quantitated by the addition of 1 μCi of ^3H-thymidine and counting the amount incorporated over a period of 4 hours.
The bioassay for the capacity of polypeptides to bind to VEGF receptor-2 is described in detail in Example 7. Aliquots of fractions eluted from the M2 affinity column, containing the VEGFDΔNΔC protein, were diluted in medium and tested in the VEGFR2 bioassay as previously described.

T1 sequence (P35918 other isoform, or with tags, fused parts or gaps mutant limits assumed): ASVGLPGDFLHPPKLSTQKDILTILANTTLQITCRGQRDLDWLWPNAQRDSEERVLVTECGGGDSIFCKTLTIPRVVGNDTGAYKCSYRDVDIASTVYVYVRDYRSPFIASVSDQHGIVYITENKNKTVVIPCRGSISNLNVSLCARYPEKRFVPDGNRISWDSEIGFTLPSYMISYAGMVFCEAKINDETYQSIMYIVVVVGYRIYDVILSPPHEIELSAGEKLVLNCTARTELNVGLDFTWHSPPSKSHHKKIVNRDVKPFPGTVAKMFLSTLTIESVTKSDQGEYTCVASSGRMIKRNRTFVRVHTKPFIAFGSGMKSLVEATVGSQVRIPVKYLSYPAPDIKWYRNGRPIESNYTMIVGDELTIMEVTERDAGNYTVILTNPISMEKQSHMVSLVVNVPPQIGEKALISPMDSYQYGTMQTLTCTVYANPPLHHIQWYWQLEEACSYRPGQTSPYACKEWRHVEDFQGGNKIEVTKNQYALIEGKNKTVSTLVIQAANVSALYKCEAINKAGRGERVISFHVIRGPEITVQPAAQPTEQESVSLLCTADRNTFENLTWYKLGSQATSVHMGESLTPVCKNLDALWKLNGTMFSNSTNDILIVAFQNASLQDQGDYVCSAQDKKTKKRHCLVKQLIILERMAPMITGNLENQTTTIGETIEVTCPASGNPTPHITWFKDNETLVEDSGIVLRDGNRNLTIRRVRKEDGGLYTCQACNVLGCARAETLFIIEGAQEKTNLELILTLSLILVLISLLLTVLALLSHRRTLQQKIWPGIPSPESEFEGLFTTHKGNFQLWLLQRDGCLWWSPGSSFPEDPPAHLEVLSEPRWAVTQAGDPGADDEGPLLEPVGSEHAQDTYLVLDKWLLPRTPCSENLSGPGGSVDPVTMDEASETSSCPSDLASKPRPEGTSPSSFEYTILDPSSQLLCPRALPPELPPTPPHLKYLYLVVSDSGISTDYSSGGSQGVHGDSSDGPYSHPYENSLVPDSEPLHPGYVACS

binding result: binds
B1: VEGFDΔNΔC (ligand)
chain: FYDIETLKVIDEEWQRTQCSPRETCVEVASELGKSTNTFFKPPCVNVFRCGGCCNEESLICMNTSTSYISKQLFEISVPLTSVPELVPVKVANHTGCKCLPTAPRHPYS
notes: also called internal VEGF-D polypeptide; fraction #3; not shown: FLAG octapeptide at the N-terminus
